Laboratory results: article PMC4258549
Like-named read-outs stand apart in the source and are kept apart here.

Experiments:
Test in all cases: AlphaScreen or HTRF
[1] = target: myc-tagged Eap (Staphylococcus aureus) (UniProt Q99QS1)
biotinylated C4b (human) [2] = target: biotinylated C4b (human)
biotinylated C4b (human) [3] = target: biotinylated C4b (human); remark: listed apart in the source

Chain of myc-tagged Eap (Staphylococcus aureus) (Q99QS1 31-476): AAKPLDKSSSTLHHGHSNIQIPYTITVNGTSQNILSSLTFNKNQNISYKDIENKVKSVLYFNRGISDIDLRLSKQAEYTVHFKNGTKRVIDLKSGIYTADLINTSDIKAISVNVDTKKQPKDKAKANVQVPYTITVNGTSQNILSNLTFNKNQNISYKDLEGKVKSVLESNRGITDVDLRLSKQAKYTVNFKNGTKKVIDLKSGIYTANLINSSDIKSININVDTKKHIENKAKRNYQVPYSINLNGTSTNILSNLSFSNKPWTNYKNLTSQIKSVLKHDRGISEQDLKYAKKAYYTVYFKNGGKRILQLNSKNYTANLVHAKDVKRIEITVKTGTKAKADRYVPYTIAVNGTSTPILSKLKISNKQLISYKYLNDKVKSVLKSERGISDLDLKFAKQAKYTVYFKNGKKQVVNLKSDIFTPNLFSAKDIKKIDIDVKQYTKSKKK
Chain of C4b-binding protein (P04003 49-597): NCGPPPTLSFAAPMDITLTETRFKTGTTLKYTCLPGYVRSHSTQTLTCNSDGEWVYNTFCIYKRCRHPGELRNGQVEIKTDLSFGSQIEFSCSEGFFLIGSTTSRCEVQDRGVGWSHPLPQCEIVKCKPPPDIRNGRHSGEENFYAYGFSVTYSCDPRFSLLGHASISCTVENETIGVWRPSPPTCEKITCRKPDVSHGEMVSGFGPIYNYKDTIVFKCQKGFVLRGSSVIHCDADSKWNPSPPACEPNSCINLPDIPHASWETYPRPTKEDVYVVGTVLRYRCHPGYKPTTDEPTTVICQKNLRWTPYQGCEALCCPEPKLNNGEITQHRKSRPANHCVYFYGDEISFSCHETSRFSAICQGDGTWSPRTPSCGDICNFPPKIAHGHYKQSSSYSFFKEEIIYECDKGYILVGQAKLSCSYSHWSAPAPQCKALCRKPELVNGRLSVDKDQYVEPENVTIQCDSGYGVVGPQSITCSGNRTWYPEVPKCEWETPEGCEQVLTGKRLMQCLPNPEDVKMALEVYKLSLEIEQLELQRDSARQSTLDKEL
Chain of C4b-binding protein (P20851 18-252): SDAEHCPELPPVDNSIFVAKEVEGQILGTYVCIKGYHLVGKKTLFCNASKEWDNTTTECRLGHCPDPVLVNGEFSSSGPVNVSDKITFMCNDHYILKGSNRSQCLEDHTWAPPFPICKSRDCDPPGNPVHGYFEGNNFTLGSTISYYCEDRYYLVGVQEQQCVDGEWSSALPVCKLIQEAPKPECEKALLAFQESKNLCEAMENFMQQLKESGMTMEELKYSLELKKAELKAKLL

| Substance | Kd [1] [nM] | IC50 (biotinylated C4b (human) [2]) [nM] | IC50 (biotinylated C4b (human) [3]) [nM] |
| --- | --- | --- | --- |
| native complement component C4 (complex) | 45 | – | – |
| C4b-binding protein (from UniProt P04003 49-597; P20851 18-252) (complex) | – | 13 | 21 |
| C2b fragment of complement component C2, recombinant (domain or fragment) | – | – | 3500 |
| C4c (complex) | 138 | – | – |
